Results on eleven molecules are retold here after article PMC4813576, “Mit1 Transcription Factor Mediates Methanol Signaling and Regulates the Alcohol Oxidase 1 (AOX1) Promoter in Pichia pastoris*”.

In series [1] the target is T1, Prm1 ZF domain (Pichia pastoris (Komagataella pastoris)) (UniProt C4R754).
T1 sequence: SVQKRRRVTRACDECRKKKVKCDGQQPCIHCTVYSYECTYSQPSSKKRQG
Briefly: EMSA. As to conditions: EMSA: 50 mM Tris-HCl pH 8.0, 50 mM NaCl, 1 mM DTT, 0.05% NP-40, 50 ug/ml poly[d(I-C)], 5% glycerol, 30 min at 4 C; about 30 nM probe, 0-1 uM protein. …. In general terms: In EMSA bound probe runs differently from free probe, usually more slowly.

Series [2] deals with T2, Mit1 ZF domain (Pichia pastoris (Komagataella pastoris)) (UniProt C4R5Q1).
T2 sequence: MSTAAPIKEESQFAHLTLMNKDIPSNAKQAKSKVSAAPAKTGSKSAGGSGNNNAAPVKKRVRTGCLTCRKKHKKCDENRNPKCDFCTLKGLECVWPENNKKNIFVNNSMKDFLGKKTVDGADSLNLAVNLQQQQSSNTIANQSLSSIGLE
Briefly: EMSA. As to conditions: EMSA: 50 mM Tris-HCl pH 8.0, 50 mM NaCl, 1 mM DTT, 0.05% NP-40, 50 ug/ml poly[d(I-C)], 5% glycerol, 30 min at 4 C; about 30 nM probe, 0-1 uM protein. ….

The target of another series is T3, Mit1 ZF domain (Pichia pastoris (Komagataella pastoris), UniProt C4R5Q1 1-150).
T3 sequence: T2 sequence
Briefly: EMSA; EMSA: 50 mM Tris-HCl pH 8.0, 50 mM NaCl, 1 mM DTT, 0.05% NP-40, 50 ug/ml poly[d(I-C)], 5% glycerol, 30 min at 4 C; about 30 nM probe, 0-1 uM protein. Footprinting: 350 ng probe in 40 ul, 30 min at 25 C. Conditions: protein: recombinant; tags: His6; label: Cy5.

A further series concerns the target T4, Prm1 ZF domain (Pichia pastoris (Komagataella pastoris), UniProt C4R754 41-90).
T4 chain: T1 sequence
Described as above. As to conditions: protein: recombinant; tags: His6; label: Cy5.

As to “ACAGAATCTGGAGGTGTAAACACCGTCATTCCCTAATCTAAGTTTCTGTCCAGCCGTTTAGAAAGTTCCTCTTCGTCAATAAAGTTTAACTTTGAACGTGAGAGTTGAGCTAATCGGAAATACTCCCGAGAGCACACCCGAGCAGTGAAGCGGGGCATCATCAAAAGAATTAAGGGGTGCTGGGTGCGGATTGCGCGCAGTAGCTGGCATCAATGCCAAACGTAGAACTCATACATTCTCCTATCAGAATCATACGACATCGAGAGATACACCAGCCAGCACCACTTGAACACTCCCAAT (double strand) [PMIT1-A]”, the binding result in series [1] is “binds”.
Turning to “ATTTTTGAGCATTCGTCAATCAATACCAAACAAGACAAACGGTATGCCGACTTTTGGAAGTTTCTTTTTGACCAACTGGCCGTTAGCATTTCAACGAACCAAACTTAGTTCATCTTGGATGAGATCACGCTTTTGTCATATTAGGTTCCAAGACAGCGTTTAAACTGT (double strand) [PAOX1 W3]”, the binding result in series [1] and in series [2] was “binds” each time.
For the molecule “CAATTCCTTCTATTAGGCTACTAACACCATGACTTTATTAGCCTGTCTATCCTGGCCCCCCTGGCGAGGTTCATGTTTGTTTATTTCCGAATGCAACAAGCTCCGCATTACACCCGAACATCACTCCAGATGAGGGCTTTCTGAGTGTGGGGTCAAATAGTTTCATGTTCCCCAAATGGCCCAAAACTGACAGTTTAAACGCTGTCTTG (double strand) [PAOX1 W2]”, the binding entry in series [1] is “no binding”; in series [2], “binds”.
On to “GATAGCACTCTGGATTGATCAGAAACTTCATATCCGGAGACAGATACTTGTCTGTCTTGCATATGGGGCAATATTCTTCAGTATCCATCCGATGATTACGATTAGTATTAGGTTGATGAATAATCCATAATGGTCCCCTGATGGAATATGCTCGCGAAGA (double strand) [PPRM1-A]”, for which the binding entry in series [1] was “binds”.
The same measure, in the same setting: then “GTTCTTCCCGTTCCGCTCTATCCGATAAGAGGTTGGCTTCCGAGAAGGTTGGTAGTTGGAATGACGTACAAAATGTACAACAAAGCAGATGTTGTTTAGCGCGATCGCCCCAACCCCTCTTGTTGTTAGACAGTCTTATGCATATTTCGTAGACCCGGGACTGTACATTCGTCCGTCCTCAACCATTGGTCATTTGGTAC (double strand) [PMIT1-D]”, with “binds”.
On to “TTGCTGTCAAGTAGGGGTTAGAACAGTTAAATTTTGATCATGAACGTTAGGCTATCAGCAGTATTCCCACCAGAATCTTGGAAGCATACAATGTGGAGACAATGCATAATCATCCAAAAAGCGGGTGTTTCCCCATTTGCGTTTCGGCACAGGTGCACCGGGGTTCAGAAGCGATAGAGAGACTGCGCTAAGCATTAATGAGATTATTTTTGAGCATTCGTCAAT (double strand) [PAOX1 W4]”, for which the binding result in series [1] is “binds”; in series [2], “no binding”.

B1: W2 delta A delta B (dsDNA)
DNA 1: CAATTCATGACTTCTGGCCCCCCTGGCGAGGTTCATGTTTGTTTATTTCCGAATGCAACAAGCTCCGCATTACACCCGAACATCACTCCAGATGAGGGCTTTCTGAGTGTGGGGTCAAATAGTTTCATGTTCCCCAAATGGCCCAAAACTGACAGTTTAAACGCTGTCTTG
DNA 2: CAAGACAGCGTTTAAACTGTCAGTTTTGGGCCATTTGGGGAACATGAAACTATTTGACCCCACACTCAGAAAGCCCTCATCTGGAGTGATGTTCGGGTGTAATGCGGAGCTTGTTGCATTCGGAAATAAACAAACATGAACCTCGCCAGGGGGGCCAGAAGTCATGAATTG
As for B1, the binding result in the series with Mit1 ZF domain is “no binding”.

B2: W3 delta D (dsDNA)
DNA 1: ACAGTTTAAACGCTGTCTTGGAACCTAATATGACAAAAGCGTGATCTCATCCAAGATGAACTAAGTTTGGTTCGTTGAAATGCTAACGGCCAGTTGGTCAAAAAGAAACTTCCGAATGCTCAAAAAT
DNA 2: ATTTTTGAGCATTCGGAAGTTTCTTTTTGACCAACTGGCCGTTAGCATTTCAACGAACCAAACTTAGTTCATCTTGGATGAGATCACGCTTTTGTCATATTAGGTTCCAAGACAGCGTTTAAACTGT
B2: the binding result with Mit1 ZF domain is given as “binds”; with Prm1 ZF domain, “no binding”.

B3: W3 delta B delta C (dsDNA)
DNA 1: ACAGTTTAAACGCTGTCTTGGAACCTAATATGACAAAAGCGTGACAAGATGAACTAAGTTTGGTTCGTTGAAATGGCCAGTTGGTCAAAAAGAAACTTCCAAAAGTCGGCATACCGTTTGTCTTGTTTGGTATTGATTGACGAATGCTCAAAAAT
DNA 2: ATTTTTGAGCATTCGTCAATCAATACCAAACAAGACAAACGGTATGCCGACTTTTGGAAGTTTCTTTTTGACCAACTGGCCATTTCAACGAACCAAACTTAGTTCATCTTGTCACGCTTTTGTCATATTAGGTTCCAAGACAGCGTTTAAACTGT
On to B3, for which the binding result in the series with Mit1 ZF domain was “binds”.

B4: W2 delta B (dsDNA)
DNA 1: CAATTCCTTCTATTAGGCTACTAACACCATGACTTCTGGCCCCCCTGGCGAGGTTCATGTTTGTTTATTTCCGAATGCAACAAGCTCCGCATTACACCCGAACATCACTCCAGATGAGGGCTTTCTGAGTGTGGGGTCAAATAGTTTCATGTTCCCCAAATGGCCCAAAACTGACAGTTTAAACGCTGTCTTG
DNA 2: CAAGACAGCGTTTAAACTGTCAGTTTTGGGCCATTTGGGGAACATGAAACTATTTGACCCCACACTCAGAAAGCCCTCATCTGGAGTGATGTTCGGGTGTAATGCGGAGCTTGTTGCATTCGGAAATAAACAAACATGAACCTCGCCAGGGGGGCCAGAAGTCATGGTGTTAGTAGCCTAATAGAAGGAATTG
Take B4: the binding result in the series with Mit1 ZF domain was “binds”.

B5: W2 delta A (dsDNA)
DNA 1: CAATTCATGACTTTATTAGCCTGTCTATCCTGGCCCCCCTGGCGAGGTTCATGTTTGTTTATTTCCGAATGCAACAAGCTCCGCATTACACCCGAACATCACTCCAGATGAGGGCTTTCTGAGTGTGGGGTCAAATAGTTTCATGTTCCCCAAATGGCCCAAAACTGACAGTTTAAACGCTGTCTTG
DNA 2: CAAGACAGCGTTTAAACTGTCAGTTTTGGGCCATTTGGGGAACATGAAACTATTTGACCCCACACTCAGAAAGCCCTCATCTGGAGTGATGTTCGGGTGTAATGCGGAGCTTGTTGCATTCGGAAATAAACAAACATGAACCTCGCCAGGGGGGCCAGGATAGACAGGCTAATAAAGTCATGAATTG
Take B5: in the series with Mit1 ZF domain, the binding result was “binds”.
